According to the supplement of paper PMC7125110:
± gives the standard error. For some of these results: This sample holds only a part of the variants without activity.

B1: glmS ribozyme (parent)
chain: AUAAAAGCGCCAGAACUACAGAAAUGUAGUUGACGAGGAGGAGGUUUAUCGAAUUUUCGGCGGAUGCCUCCAAA

Tests used:
Conditions in all cases: with glucosamine-6-phosphate
[1] = variants of: B1; assay: kcat; higher = faster cleavage; RNA array
Outline: (§1)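 Sequenced MiSeq chips were the platform: E. coli RNA polymerase transcribed barcoded ribozyme variants on them in situ, and a hybridised Cy3 probe tracked these at 37 °C. After glucosamine-6-phosphate (40 μM to 10 mM) in HEPES/KCl/Mg(OAc)2 buffer was flowed in, tiles were imaged over ~14 h. Signals normalised to baseline and to non-cleaving reference variants were reduced to per-tile medians and fit to one- or two-exponential decays to obtain kobs. kcat and KM were derived through weighted Michaelis–Menten fits across concentrations.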

[2] = variants of: B1; assay: self-cleavage kobs at 40 uM GlcN6P; higher = faster cleavage; RNA array
Outline: as §1

[3] = variants of: B1; assay: self-cleavage kobs at 160 uM GlcN6P; higher = faster cleavage; RNA array
Outline: as §1

[4] = variants of: B1; assay: self-cleavage kobs at 640 uM GlcN6P; higher = faster cleavage; RNA array
Outline: as §1

[5] = variants of: B1; assay: self-cleavage kobs at 2500 uM GlcN6P; higher = faster cleavage; RNA array
Outline: as §1

[6] = variants of: B1; assay: self-cleavage kobs at 10000 uM GlcN6P; higher = faster cleavage; RNA array
Outline: as §1

[7] = variants of: B1; assay: KM; higher = weaker cofactor use; RNA array
Outline: as §1

Variant | kcat [1] [s⁻¹] | self-cleavage kobs at 40 uM GlcN6P [2] [s⁻¹] | self-cleavage kobs at 160 uM GlcN6P [3] [s⁻¹] | self-cleavage kobs at 640 uM GlcN6P [4] [s⁻¹] | self-cleavage kobs at 2500 uM GlcN6P [5] [s⁻¹] | self-cleavage kobs at 10000 uM GlcN6P [6] [s⁻¹] | KM [7] [µM]
A12C C34A | < 1e-05 | < 1e-05 | < 1e-05 | < 1e-05 | < 1e-05 | – | –
U46G A53G | 0.00499 ± 0.0025 | 0.000271 ± 7.8e-05 | 0.000482 ± 0.00011 | 0.00165 ± 0.00049 | 0.00267 ± 0.00089 | 0.00811 ± 0.0028 | –
A42U C67U | 0.000151 ± 1.3e-05 | – | – | 5.2e-05 ± 6.3e-06 | 0.000127 ± 1.2e-05 | 0.000131 ± 8.5e-06 | 1090 ± 300
U31A G66U | 0.000713 ± 5.1e-05 | 2.99e-05 ± 1.3e-05 | 7.61e-05 ± 1.5e-05 | 0.000206 ± 3.9e-05 | 0.000466 ± 7.9e-05 | 0.000631 ± 7.6e-05 | 1380 ± 190
A42C U69G | 0.00638 ± 0.0012 | 0.00174 ± 0.00021 | 0.00249 ± 0.00048 | 0.00686 ± 0.0012 | 0.00742 ± 0.0017 | 0.00624 ± 0.00083 | 129 ± 51
U31A U57G | 4.33e-05 ± 3.3e-06 | – | – | – | – | 3.33e-05 ± 1.1e-05 | 2970 ± 780
G38U G51U | < 1e-05 | – | – | – | – | – | –
